Reference: PMC6983858, “Biochemical and structural analyses reveal that the tumor suppressor neurofibromin (NF1) forms a high-affinity dimer” (The Journal of Biological Chemistry, 2019)

T1: neurofibromin EF fragment (1821–2818) (human, UniProt P21359-2 1821-2818)
T1 construct: neurofibromin, human, NF1 isoform 2 (NM_000267.3); residues 1821-2818; numbers count on: the 2818-residue isoform; TEV cleavage (ENLYFQ/G) probably leaves a G at the N-terminus; also called EF domain; EF(1821–2818); source: Tni-FNL insect cells (baculovirus), purified; not shown: His6, N-terminal, cleaved; MBP, N-terminal, cleaved
T1 sequence (looked up): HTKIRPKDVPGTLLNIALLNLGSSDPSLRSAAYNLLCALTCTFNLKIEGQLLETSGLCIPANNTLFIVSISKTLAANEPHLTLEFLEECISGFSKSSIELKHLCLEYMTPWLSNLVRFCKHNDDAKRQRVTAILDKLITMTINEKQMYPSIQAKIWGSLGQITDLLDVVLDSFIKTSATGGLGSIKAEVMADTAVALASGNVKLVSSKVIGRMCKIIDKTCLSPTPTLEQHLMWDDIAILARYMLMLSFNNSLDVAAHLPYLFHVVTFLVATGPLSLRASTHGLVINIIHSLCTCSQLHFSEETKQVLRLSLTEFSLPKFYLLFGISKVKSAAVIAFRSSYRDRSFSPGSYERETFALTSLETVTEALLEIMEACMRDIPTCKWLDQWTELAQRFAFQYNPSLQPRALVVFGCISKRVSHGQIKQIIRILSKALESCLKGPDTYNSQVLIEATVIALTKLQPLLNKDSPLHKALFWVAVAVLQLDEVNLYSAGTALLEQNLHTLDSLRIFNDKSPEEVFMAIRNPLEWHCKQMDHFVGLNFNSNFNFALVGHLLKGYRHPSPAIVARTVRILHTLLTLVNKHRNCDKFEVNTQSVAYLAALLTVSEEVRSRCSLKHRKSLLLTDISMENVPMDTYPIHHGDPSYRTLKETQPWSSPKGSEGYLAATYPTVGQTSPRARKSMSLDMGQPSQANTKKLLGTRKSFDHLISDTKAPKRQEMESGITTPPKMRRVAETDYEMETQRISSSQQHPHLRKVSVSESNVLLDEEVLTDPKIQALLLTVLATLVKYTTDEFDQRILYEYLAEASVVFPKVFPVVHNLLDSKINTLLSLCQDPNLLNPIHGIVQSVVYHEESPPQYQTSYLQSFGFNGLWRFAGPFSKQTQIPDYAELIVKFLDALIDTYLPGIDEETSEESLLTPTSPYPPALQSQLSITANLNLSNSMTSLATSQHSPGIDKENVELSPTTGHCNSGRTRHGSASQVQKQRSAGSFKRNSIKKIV


Legend:
[1] = biological target: T1, neurofibromin EF fragment (1821–2818); assay: SEC; equimolar mixtures of two purified NF1 fragments on an analytical SEC column, fractions analysed by SDS-PAGE; conditions: both partners purified
[2] = biological target: the molecule itself; assay: AUC; sedimentation velocity of CDEF, 2.2 to 8.8 μM, 40,000 rpm, 20 °C, 300 mM NaCl, 20 mM HEPES-NaOH pH 7.3, 5 mM TCEP
[3] = biological target: T2, neurofibromin ABC fragment (2–1540) (human, UniProt P21359-2 2-1540); assay: SEC; equimolar mixtures of two purified NF1 fragments on an analytical SEC column, fractions analysed by SDS-PAGE; conditions: both partners purified
T2 construct: neurofibromin, human, NF1 isoform 2 (NM_000267.3); numbers count on: the 2818-residue isoform; TEV cleavage (ENLYFQ/G) probably leaves a G at the N-terminus; also called NF1-ABC; source: Tni-FNL insect cells (baculovirus), purified; not shown: His6, N-terminal, cleaved; MBP, N-terminal, cleaved
T2 sequence (P21359 other isoform, or with tags, fused parts or gaps): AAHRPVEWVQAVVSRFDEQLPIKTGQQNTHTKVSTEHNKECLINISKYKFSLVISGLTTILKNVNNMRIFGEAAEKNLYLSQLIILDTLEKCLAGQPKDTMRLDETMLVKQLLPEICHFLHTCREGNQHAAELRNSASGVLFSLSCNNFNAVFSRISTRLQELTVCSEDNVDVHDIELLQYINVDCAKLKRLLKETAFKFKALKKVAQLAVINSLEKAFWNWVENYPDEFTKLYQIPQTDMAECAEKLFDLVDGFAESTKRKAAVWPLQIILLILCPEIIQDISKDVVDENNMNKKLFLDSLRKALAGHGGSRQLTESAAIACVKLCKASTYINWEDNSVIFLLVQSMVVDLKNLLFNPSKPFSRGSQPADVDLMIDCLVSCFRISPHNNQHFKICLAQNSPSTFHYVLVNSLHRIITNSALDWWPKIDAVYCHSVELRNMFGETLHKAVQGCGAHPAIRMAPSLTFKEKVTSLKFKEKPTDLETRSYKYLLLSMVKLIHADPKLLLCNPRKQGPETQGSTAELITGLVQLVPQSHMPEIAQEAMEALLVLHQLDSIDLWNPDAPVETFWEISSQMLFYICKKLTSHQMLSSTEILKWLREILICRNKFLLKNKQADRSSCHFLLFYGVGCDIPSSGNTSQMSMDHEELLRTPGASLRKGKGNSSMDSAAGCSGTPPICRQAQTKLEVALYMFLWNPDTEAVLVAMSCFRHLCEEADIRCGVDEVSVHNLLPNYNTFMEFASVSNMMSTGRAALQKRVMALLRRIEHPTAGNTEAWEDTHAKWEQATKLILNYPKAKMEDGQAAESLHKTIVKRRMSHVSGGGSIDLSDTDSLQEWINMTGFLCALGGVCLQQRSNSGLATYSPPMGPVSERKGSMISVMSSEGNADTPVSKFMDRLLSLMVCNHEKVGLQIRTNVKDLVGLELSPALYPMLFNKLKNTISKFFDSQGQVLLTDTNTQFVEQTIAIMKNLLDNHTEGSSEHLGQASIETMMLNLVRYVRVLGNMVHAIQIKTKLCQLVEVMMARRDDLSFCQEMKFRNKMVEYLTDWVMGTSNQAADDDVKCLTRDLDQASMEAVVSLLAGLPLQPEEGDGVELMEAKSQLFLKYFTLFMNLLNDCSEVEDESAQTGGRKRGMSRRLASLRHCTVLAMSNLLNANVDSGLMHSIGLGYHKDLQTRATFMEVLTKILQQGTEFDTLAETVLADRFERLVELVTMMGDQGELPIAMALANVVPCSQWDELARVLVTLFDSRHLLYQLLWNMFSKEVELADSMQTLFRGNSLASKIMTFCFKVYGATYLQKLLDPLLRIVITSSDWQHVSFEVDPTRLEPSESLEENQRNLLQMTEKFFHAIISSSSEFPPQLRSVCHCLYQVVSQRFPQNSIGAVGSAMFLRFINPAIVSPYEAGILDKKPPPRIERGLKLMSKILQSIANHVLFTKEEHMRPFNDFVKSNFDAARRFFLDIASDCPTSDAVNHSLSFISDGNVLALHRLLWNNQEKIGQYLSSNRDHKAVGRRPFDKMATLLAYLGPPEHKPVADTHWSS

Binder | binding result [1] | also measured
neurofibromin C*D domain (1085–1816) (domain or fragment, human, UniProt P21359-2 1085-1816, looked up, neurofibromin, human, NF1 isoform 2 (NM_000267.3); numbers count on: the 2818-residue isoform; TEV cleavage (ENLYFQ/G) probably leaves a G at the N-terminus; also called CD domains; source: Tni-FNL insect cells (baculovirus), purified; not shown: His6, N-terminal, cleaved; MBP, N-terminal, cleaved) LQPEEGDGVELMEAKSQLFLKYFTLFMNLLNDCSEVEDESAQTGGRKRGMSRRLASLRHCTVLAMSNLLNANVDSGLMHSIGLGYHKDLQTRATFMEVLTKILQQGTEFDTLAETVLADRFERLVELVTMMGDQGELPIAMALANVVPCSQWDELARVLVTLFDSRHLLYQLLWNMFSKEVELADSMQTLFRGNSLASKIMTFCFKVYGATYLQKLLDPLLRIVITSSDWQHVSFEVDPTRLEPSESLEENQRNLLQMTEKFFHAIISSSSEFPPQLRSVCHCLYQVVSQRFPQNSIGAVGSAMFLRFINPAIVSPYEAGILDKKPPPRIERGLKLMSKILQSIANHVLFTKEEHMRPFNDFVKSNFDAARRFFLDIASDCPTSDAVNHSLSFISDGNVLALHRLLWNNQEKIGQYLSSNRDHKAVGRRPFDKMATLLAYLGPPEHKPVADTHWSSLNLTSSKFEEFMTRHQVHEKEEFKALKTLSIFYQAGTSKAGNPIFYYVARRFKTGQINGDLLIYHVLLTLKPYYAKPYEIVVDLTHTGPSNRFKTDFLSKWFVVFPGFAYDNVSAVYIYNCNSWVREYTKYHERLLTGLKGSKRLVFIDCPGKLAEHIEHEQQKLPAATLALEEDLKVFHNALKLAHKDTKVSIKVGSTAVQVTSAERTKVLGQSVFLNDIYYASEIEEICLVDENQFTLTIANQGTPLTFMHQECEAIVQSIIHIRTRWELSQPD | binds | –
neurofibromin CDEF fragment (861–2818) (domain or fragment, human, UniProt P21359-2 861-2818, looked up, neurofibromin, human, NF1 isoform 2 (NM_000267.3); residues 861-2818; numbers count on: the 2818-residue isoform; TEV cleavage (ENLYFQ/G) probably leaves a G at the N-terminus; also called NF1-CDEF; NF1(861–2818); source: Tni-FNL insect cells (baculovirus), purified; not shown: His6, N-terminal, cleaved; MBP, N-terminal, cleaved) ATYSPPMGPVSERKGSMISVMSSEGNADTPVSKFMDRLLSLMVCNHEKVGLQIRTNVKDLVGLELSPALYPMLFNKLKNTISKFFDSQGQVLLTDTNTQFVEQTIAIMKNLLDNHTEGSSEHLGQASIETMMLNLVRYVRVLGNMVHAIQIKTKLCQLVEVMMARRDDLSFCQEMKFRNKMVEYLTDWVMGTSNQAADDDVKCLTRDLDQASMEAVVSLLAGLPLQPEEGDGVELMEAKSQLFLKYFTLFMNLLNDCSEVEDESAQTGGRKRGMSRRLASLRHCTVLAMSNLLNANVDSGLMHSIGLGYHKDLQTRATFMEVLTKILQQGTEFDTLAETVLADRFERLVELVTMMGDQGELPIAMALANVVPCSQWDELARVLVTLFDSRHLLYQLLWNMFSKEVELADSMQTLFRGNSLASKIMTFCFKVYGATYLQKLLDPLLRIVITSSDWQHVSFEVDPTRLEPSESLEENQRNLLQMTEKFFHAIISSSSEFPPQLRSVCHCLYQVVSQRFPQNSIGAVGSAMFLRFINPAIVSPYEAGILDKKPPPRIERGLKLMSKILQSIANHVLFTKEEHMRPFNDFVKSNFDAARRFFLDIASDCPTSDAVNHSLSFISDGNVLALHRLLWNNQEKIGQYLSSNRDHKAVGRRPFDKMATLLAYLGPPEHKPVADTHWSSLNLTSSKFEEFMTRHQVHEKEEFKALKTLSIFYQAGTSKAGNPIFYYVARRFKTGQINGDLLIYHVLLTLKPYYAKPYEIVVDLTHTGPSNRFKTDFLSKWFVVFPGFAYDNVSAVYIYNCNSWVREYTKYHERLLTGLKGSKRLVFIDCPGKLAEHIEHEQQKLPAATLALEEDLKVFHNALKLAHKDTKVSIKVGSTAVQVTSAERTKVLGQSVFLNDIYYASEIEEICLVDENQFTLTIANQGTPLTFMHQECEAIVQSIIHIRTRWELSQPDSIPQHTKIRPKDVPGTLLNIALLNLGSSDPSLRSAAYNLLCALTCTFNLKIEGQLLETSGLCIPANNTLFIVSISKTLAANEPHLTLEFLEECISGFSKSSIELKHLCLEYMTPWLSNLVRFCKHNDDAKRQRVTAILDKLITMTINEKQMYPSIQAKIWGSLGQITDLLDVVLDSFIKTSATGGLGSIKAEVMADTAVALASGNVKLVSSKVIGRMCKIIDKTCLSPTPTLEQHLMWDDIAILARYMLMLSFNNSLDVAAHLPYLFHVVTFLVATGPLSLRASTHGLVINIIHSLCTCSQLHFSEETKQVLRLSLTEFSLPKFYLLFGISKVKSAAVIAFRSSYRDRSFSPGSYERETFALTSLETVTEALLEIMEACMRDIPTCKWLDQWTELAQRFAFQYNPSLQPRALVVFGCISKRVSHGQIKQIIRILSKALESCLKGPDTYNSQVLIEATVIALTKLQPLLNKDSPLHKALFWVAVAVLQLDEVNLYSAGTALLEQNLHTLDSLRIFNDKSPEEVFMAIRNPLEWHCKQMDHFVGLNFNSNFNFALVGHLLKGYRHPSPAIVARTVRILHTLLTLVNKHRNCDKFEVNTQSVAYLAALLTVSEEVRSRCSLKHRKSLLLTDISMENVPMDTYPIHHGDPSYRTLKETQPWSSPKGSEGYLAATYPTVGQTSPRARKSMSLDMGQPSQANTKKLLGTRKSFDHLISDTKAPKRQEMESGITTPPKMRRVAETDYEMETQRISSSQQHPHLRKVSVSESNVLLDEEVLTDPKIQALLLTVLATLVKYTTDEFDQRILYEYLAEASVVFPKVFPVVHNLLDSKINTLLSLCQDPNLLNPIHGIVQSVVYHEESPPQYQTSYLQSFGFNGLWRFAGPFSKQTQIPDYAELIVKFLDALIDTYLPGIDEETSEESLLTPTSPYPPALQSQLSITANLNLSNSMTSLATSQHSPGIDKENVELSPTTGHCNSGRTRHGSASQVQKQRSAGSFKRNSIKKIV | – | stoichiometry N [2]: 2
neurofibromin DEF fragment (1541–2818) (domain or fragment, human, UniProt P21359-2 1541-2818, looked up, neurofibromin, human, NF1 isoform 2 (NM_000267.3); numbers count on: the 2818-residue isoform; TEV cleavage (ENLYFQ/G) probably leaves a G at the N-terminus; also called NF1-DEF; source: Tni-FNL insect cells (baculovirus), purified; not shown: His6, N-terminal, cleaved; MBP, N-terminal, cleaved) LNLTSSKFEEFMTRHQVHEKEEFKALKTLSIFYQAGTSKAGNPIFYYVARRFKTGQINGDLLIYHVLLTLKPYYAKPYEIVVDLTHTGPSNRFKTDFLSKWFVVFPGFAYDNVSAVYIYNCNSWVREYTKYHERLLTGLKGSKRLVFIDCPGKLAEHIEHEQQKLPAATLALEEDLKVFHNALKLAHKDTKVSIKVGSTAVQVTSAERTKVLGQSVFLNDIYYASEIEEICLVDENQFTLTIANQGTPLTFMHQECEAIVQSIIHIRTRWELSQPDSIPQHTKIRPKDVPGTLLNIALLNLGSSDPSLRSAAYNLLCALTCTFNLKIEGQLLETSGLCIPANNTLFIVSISKTLAANEPHLTLEFLEECISGFSKSSIELKHLCLEYMTPWLSNLVRFCKHNDDAKRQRVTAILDKLITMTINEKQMYPSIQAKIWGSLGQITDLLDVVLDSFIKTSATGGLGSIKAEVMADTAVALASGNVKLVSSKVIGRMCKIIDKTCLSPTPTLEQHLMWDDIAILARYMLMLSFNNSLDVAAHLPYLFHVVTFLVATGPLSLRASTHGLVINIIHSLCTCSQLHFSEETKQVLRLSLTEFSLPKFYLLFGISKVKSAAVIAFRSSYRDRSFSPGSYERETFALTSLETVTEALLEIMEACMRDIPTCKWLDQWTELAQRFAFQYNPSLQPRALVVFGCISKRVSHGQIKQIIRILSKALESCLKGPDTYNSQVLIEATVIALTKLQPLLNKDSPLHKALFWVAVAVLQLDEVNLYSAGTALLEQNLHTLDSLRIFNDKSPEEVFMAIRNPLEWHCKQMDHFVGLNFNSNFNFALVGHLLKGYRHPSPAIVARTVRILHTLLTLVNKHRNCDKFEVNTQSVAYLAALLTVSEEVRSRCSLKHRKSLLLTDISMENVPMDTYPIHHGDPSYRTLKETQPWSSPKGSEGYLAATYPTVGQTSPRARKSMSLDMGQPSQANTKKLLGTRKSFDHLISDTKAPKRQEMESGITTPPKMRRVAETDYEMETQRISSSQQHPHLRKVSVSESNVLLDEEVLTDPKIQALLLTVLATLVKYTTDEFDQRILYEYLAEASVVFPKVFPVVHNLLDSKINTLLSLCQDPNLLNPIHGIVQSVVYHEESPPQYQTSYLQSFGFNGLWRFAGPFSKQTQIPDYAELIVKFLDALIDTYLPGIDEETSEESLLTPTSPYPPALQSQLSITANLNLSNSMTSLATSQHSPGIDKENVELSPTTGHCNSGRTRHGSASQVQKQRSAGSFKRNSIKKIV | – | binding result [3]: binds
neurofibromin C* domain (1085–1530) (domain or fragment, human, UniProt P21359-2 1085-1530, looked up, neurofibromin, human, NF1 isoform 2 (NM_000267.3); numbers count on: the 2818-residue isoform; TEV cleavage (ENLYFQ/G) probably leaves a G at the N-terminus; source: Tni-FNL insect cells (baculovirus), purified; not shown: His6, N-terminal, cleaved; MBP, N-terminal, cleaved) LQPEEGDGVELMEAKSQLFLKYFTLFMNLLNDCSEVEDESAQTGGRKRGMSRRLASLRHCTVLAMSNLLNANVDSGLMHSIGLGYHKDLQTRATFMEVLTKILQQGTEFDTLAETVLADRFERLVELVTMMGDQGELPIAMALANVVPCSQWDELARVLVTLFDSRHLLYQLLWNMFSKEVELADSMQTLFRGNSLASKIMTFCFKVYGATYLQKLLDPLLRIVITSSDWQHVSFEVDPTRLEPSESLEENQRNLLQMTEKFFHAIISSSSEFPPQLRSVCHCLYQVVSQRFPQNSIGAVGSAMFLRFINPAIVSPYEAGILDKKPPPRIERGLKLMSKILQSIANHVLFTKEEHMRPFNDFVKSNFDAARRFFLDIASDCPTSDAVNHSLSFISDGNVLALHRLLWNNQEKIGQYLSSNRDHKAVGRRPFDKMATLLAYLGPPEH | binds | –
